# Patent US20170037084A1 (UNIVERSITY OF ROCHESTER, published 2017)
# Bridges are numbered along the chain shown (N, C = ends). Where no end group is shown, it is not given here. [ ]: non-standard residue; d: D form. The star is where a group is joined. SP8 = 3-amino-N-(3-(aminooxy)propyl)-4-(mercaptomethyl)benzamide, macrocycle-forming linker reagent; mAcF = meta-acetyl-L-phenylalanine, its ketone forms an oxime with the linker; pAcF = para-acetyl-L-phenylalanine, its ketone forms an oxime with the linker; FITC = O=C1OC2(c3ccc(O)cc3Oc3cc(O)ccc32)c2ccc(NC(=S)*)cc21; Trp(6-Cl) = N[C@@H](Cc1c[nH]c2cc(Cl)ccc12)C(=O)O; Phe(4-Ac) = CC(=O)c1ccc(C[C@H](N)C(=O)O)cc1; SP4 = not defined here; SP6 = not defined here; SP9 = not defined here; βAla = NCCC(=O)O
# T1: HDMX-YFP fusion protein (p53-binding domain of human HDMX, residues 1-109, C-terminally fused to Yellow … (human, UniProt O15151 1-109))
# T1 construct: range 1-109; Expressed in E. coli BL21(DE3) from pET22-HDMX-YFP-His; also called HMDX; HDM4; not shown: Yellow Fluorescent Protein (YFP); C-terminal His tag
# T1 sequence (looked up): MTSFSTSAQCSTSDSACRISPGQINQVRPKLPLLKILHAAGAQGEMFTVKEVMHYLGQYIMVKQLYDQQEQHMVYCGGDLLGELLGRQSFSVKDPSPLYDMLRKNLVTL
# B1: p53 macrocyclic peptidomimetic P7 (i/i+10(CO)-linked, SP6-based linker) (peptide)
# peptide: G[Phe(4-Ac)]SFAEYWNLLA
# modifications: linker 2-C via SP6; reading uncertain; also: linker thiol capped with iodoacetamide
# B2: p53 macrocyclic peptidomimetic P8 (i/i+10(CO)-linked, SP8-based linker) (peptide)
# peptide: G[Phe(4-Ac)]SFAEYWNLLA
# modifications: bridge 2-C; not fully specified (bridges); also: linker thiol capped with iodoacetamide
# B3: FITC-β-Ala-P8 (fluorescein-labeled derivative of macrocycle P8) (peptide)
# peptide: {FITC-βAla}-G[pAcF]SFAEYWNLLA
# modifications: linker 2-C via SP8; also: linker thiol capped with iodoacetamide
# notes: also called fluorescein-conjugated P8
# B4: p53 macrocyclic peptidomimetic P5 (i/i+6(CO)-linked, distance-mismatched SP4-based linker; negative control) (peptide)
# peptide: GTSFA[Phe(4-Ac)]YWNLLA
# modifications: linker 6-C via SP4; reading uncertain; also: linker thiol capped with iodoacetamide
# notes: also called SP4-based macrocycle P5
# B5: p53 macrocyclic peptidomimetic P4 (i/i+6(CO)-linked, SP8-based linker) (peptide)
# peptide: GTSFA[pAcF]YWNLLA
# modifications: linker 6-C via SP8; also: linker thiol capped with iodoacetamide
# B6: P11 (peptide)
# peptide: Ac-[Phe(4-Ac)]SFAEY[Trp(6-Cl)]ALLA-NH2
# SMILES: CC(=O)N[C@@H](Cc1ccc(C(C)=O)cc1)C(=O)N[C@@H](CO)C(=O)N[C@@H](Cc1ccccc1)C(=O)N[C@@H](C)C(=O)N[C@@H](CCC(=O)O)C(=O)N[C@@H](Cc1ccc(O)cc1)C(=O)N[C@@H](Cc1c[nH]c2cc(Cl)ccc12)C(=O)N[C@@H](C)C(=O)N[C@@H](CC(C)C)C(=O)N[C@@H](CC(C)C)C(=O)N[C@@H](C)C(N)=O
# notes: also called Ac-(pAcF)SFAEY(6ClW)ALLA-NH2
# B7: P14 (peptide)
# peptide: Ac-[mAcF]SFAEYWNLLA
# modifications: linker 1-C via SP8; also: linker thiol capped with iodoacetamide
# B8: P13 (peptide)
# peptide: Ac-[pAcF]SFAEYWNLLA
# modifications: linker 1-C via SP8; also: linker thiol capped with iodoacetamide
# B9: P16 (peptide)
# peptide: Ac-[mAcF]SFAEY[Trp(6-Cl)]ALLA
# modifications: linker 1-C via SP8; also: linker thiol capped with iodoacetamide
# notes: also called Ac-(mAcF)SFAEY(6ClW)ALLA, SP8-linked macrocycle
# B10: P12 (peptide)
# peptide: Ac-G[pAcF]SFAEYWNLLA
# modifications: linker 2-C via SP8; also: linker thiol capped with iodoacetamide
# B11: P19 (peptide)
# peptide: Ac-[pAcF]SFAEY[Trp(6-Cl)]ALLA
# modifications: linker 1-C via SP4; reading uncertain; also: linker thiol capped with iodoacetamide
# notes: also called Ac-(pAcF)SFAEY(6ClW)ALLA, SP4-linked macrocycle
# B12: P18 (peptide)
# peptide: Ac-[mAcF]SFAEY[Trp(6-Cl)]ALLA
# modifications: linker 1-C via SP9; reading uncertain; also: linker thiol capped with iodoacetamide
# notes: also called Ac-(mAcF)SFAEY(6ClW)ALLA, SP9-linked macrocycle
# B13: P17 (peptide)
# peptide: Ac-[pAcF]SFAEY[Trp(6-Cl)]ALLA
# modifications: linker 1-C via SP9; reading uncertain; also: linker thiol capped with iodoacetamide
# notes: also called Ac-(pAcF)SFAEY(6ClW)ALLA, SP9-linked macrocycle
# B14: P2 (peptide)
# peptide: Ac-GTSFAYYWNLLA-NH2
# notes: also called acyclic counterpart of P3 and P4
# B15: p53 macrocyclic peptidomimetic P3 (i/i+6(CO)-linked, SP6-based linker) (peptide)
# peptide: GTSFA[Phe(4-Ac)]YWNLLA
# modifications: linker 6-C via SP6; reading uncertain; also: linker thiol capped with iodoacetamide
# Biological target: T1, HDMX-YFP fusion protein (p53-binding …)
# Test: SPR inhibition assay, competitor immobilised biotin-p53(15-29)
# Protocol: (§1) The surface plasmon resonance (SPR)-based inhibition assays were performed using a BIAcore T100 instrument. […] Running buffer and sample buffer contained 10 mM HEPES buffer, pH 7.4 with 150 mM NaCl, 3 mM EDTA and 0.05% v/v Tween 20. […] With increasing concentrations of the inhibitor, binding of HDM2 (or HDMX) to the surface is inhibited, leading to a decrease in biosensor response. HDM2/HDMX plus inhibitor samples were injected at a rate of 30 uL/min over a 2 minute interval by a 2 minute dissociation period and a 10-second regeneration step using 10 mM HCl. Specific binding curves for each concentration of inhibitor were obtained by subtracting the response in the reference surface from the response in the p53-coated surface.
row,Binder,IC50 [nM]
1,B1,910
2,B2,340

# Biological target: T2, HDM2-YFP fusion protein (p53-binding domain of human HDM2, residues 1-109, C-terminally fused to Yellow … (human, UniProt Q00987 1-109))
# T2 construct: range 1-109; Expressed in E. coli BL21(DE3) from pET22-HDM2-YFP-His; also called HMD2; HDM2-YFP-His; not shown: Yellow Fluorescent Protein (YFP); C-terminal His tag
# T2 sequence (Q00987 1-109): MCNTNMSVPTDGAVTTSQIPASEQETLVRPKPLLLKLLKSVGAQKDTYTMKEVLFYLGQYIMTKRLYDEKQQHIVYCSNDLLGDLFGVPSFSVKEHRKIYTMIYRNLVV
# Test: fluorescence polarization, fluorescein-labeled compound (25-200 nM) titrated with HDM2 (10 nM to 2 µM)
# Protocol: HDM2 binding studies. […] In the assay, 25-200 nM of the fluorescein-labeled compound and HDM2 concentrations varying from 10 nM to 2 μM were tested. The experiments were performed at room temperature in black 96-well plates with a final volume of 75 μL in PBS buffer with addition of 1% DMSO. Fluorescence was detected at excitation/emission of 470/520 nm and change in fluorescence polarization was plotted against the varying protein concentration.
row,Binder,Kd [nM]
1,B3,63

# Biological target: T1, HDMX-YFP fusion protein (p53-binding …)
# Test: SPR inhibition assay, competitor immobilised biotin-p53(15-29); the sentence does not say which homolog
# Protocol: as §1
row,Binder,IC50 [nM]
1,B4,~10000

# Biological target: T2, HDM2-YFP fusion protein (p53-binding …)
# Test: SPR inhibition assay: inhibitor added to soluble HDM2-YFP, binding to immobilized biotin-SGSG-p53(15-29) is inhibited
# Protocol: as §1
row,Binder,IC50 [nM]
1,B5,1500
2,B6,30
3,B7,255
4,B8,135
5,B9,105
6,B10,145
7,B11,> 50000
8,B12,400
9,B13,305
10,B14,1510
11,B15,870

# Biological target: T1, HDMX-YFP fusion protein (p53-binding …)
# Test: SPR inhibition assay: inhibitor added to soluble HDMX-YFP, binding to immobilized biotin-SGSG-p53(15-29) is inhibited
# Protocol: as §1
row,Binder,IC50 [nM]
1,B5,3500
2,B14,7500
3,B15,4100
